Results as given in patent US20020164759A1 (UNIVERSITY OF GEORGIA RESEARCH FOUNDATION, published 2002).

Tests used:
[1] = target: Porphyromonas gingivalis dipeptidylpeptidase-7 (DPP-7), purified from strain HG66 (Porphyromonas gingivalis) (UniProt B2RKV3); test: cell-based or functional assay
[2] = target: T1, Phe-Leu-Arg-Glu-Pro-Val-Ile-Phe-Leu (SEQ ID NO:13)
T1 chain: FLREPVIFL

[3] = target: T2, Ala-Pro-Val-Arg-Ser-Leu (SEQ ID NO:16)
T2 chain: APVRSL

[4] = target: T3, Ser-Pro-Tyr-Ser-Ser-Glu-Thr-Thr (SEQ ID NO:15)
T3 chain: SPYSSETT

[5] = target: T4, Ile-Ala-Arg-Arg-His-Pro-Tyr-Phe-Leu (SEQ ID NO:11)
T4 chain: IARRHPYFL

[6] = target: T5, Trp-His-Trp-Leu-Glu-Leu-Lys-Pro-Gly-Glu-Pro-Met-Tyr (SEQ ID NO:14)
T5 chain: WHWLELKPGEPMY

[7] = target: carboxymethylated lysosyme
[8] = target: T6, Trp-Ala-Gly-Gly-Asp-Ala-Ser-Gly-Glu (SEQ ID NO:10)
T6 chain: WAGGDASGE

[9] = target: T7, Lys-Ile-Ala-Gly-Tyr-His-Leu-Glu-Leu (SEQ ID NO:12)
T7 chain: KIAGYHLEL

[10] = target: T8, Gln-Lys-Gln-Met-Ser-Asp-Arg-Arg-Glu (SEQ ID NO:17)
T8 chain: QKQMSDRRE

[11] = target: T9, Porphyromonas gingivalis dipeptidylpeptidase-7 (DPP-7), purified from strain HG66 (Porphyromonas gingivalis, UniProt B2RKV3 24-712); test: cell-based or functional assay
T9 sequence: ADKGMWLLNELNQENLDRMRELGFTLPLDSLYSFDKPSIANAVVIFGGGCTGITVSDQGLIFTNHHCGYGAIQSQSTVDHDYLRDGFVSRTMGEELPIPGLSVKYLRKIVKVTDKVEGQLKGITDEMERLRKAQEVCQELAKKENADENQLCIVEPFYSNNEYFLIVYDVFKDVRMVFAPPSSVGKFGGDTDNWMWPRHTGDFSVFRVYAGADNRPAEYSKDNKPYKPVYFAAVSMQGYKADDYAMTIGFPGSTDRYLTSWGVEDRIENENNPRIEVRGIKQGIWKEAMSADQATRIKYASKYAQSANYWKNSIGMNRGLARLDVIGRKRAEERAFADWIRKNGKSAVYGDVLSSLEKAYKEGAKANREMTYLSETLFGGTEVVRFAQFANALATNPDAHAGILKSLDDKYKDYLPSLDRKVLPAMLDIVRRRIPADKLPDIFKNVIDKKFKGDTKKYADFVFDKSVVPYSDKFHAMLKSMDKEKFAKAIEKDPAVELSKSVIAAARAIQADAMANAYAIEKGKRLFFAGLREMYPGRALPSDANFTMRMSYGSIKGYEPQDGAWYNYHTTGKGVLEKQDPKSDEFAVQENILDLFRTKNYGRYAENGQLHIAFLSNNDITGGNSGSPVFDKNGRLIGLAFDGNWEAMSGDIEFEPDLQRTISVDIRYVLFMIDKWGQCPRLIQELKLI

Aprotinin (from UniProt P00974 36-93)
% of residual activity of DPP-7 against H-Ala-Phe-pNA after preincubation with 0.5 mg/ml inhibitor [1]: 128%

B1: Porphyromonas gingivalis dipeptidylpeptidase-7 (DPP-7), purified from strain HG66 (protein)
chain: T9 sequence
Peptides cleaved (hydrolysis products separated by reverse-phase HPLC, mass spectrometry) [2]: Phe-Leu-↓-Arg-Glu-Pro-Val-Ile-Phe-Leu | endopeptidase activity (type I collagen): did not show any endopeptidase activity | endopeptidase activity (insulin β chain): did not show any endopeptidase activity | Peptides not cleaved (reverse-phase HPLC, mass spectrometry) [3]: Peptides not cleaved | Peptides not cleaved (reverse-phase HPLC, mass spectrometry) [4]: Peptides not cleaved | Peptides cleaved (hydrolysis products separated by reverse-phase HPLC, mass spectrometry) [5]: Ile-Ala-↓-Arg-Arg-His-Pro-Tyr-Phe-Leu | Peptides not cleaved (reverse-phase HPLC, mass spectrometry) [6]: Peptides not cleaved | endopeptidase activity [7]: did not show any endopeptidase activity | Peptides cleaved (hydrolysis products separated by reverse-phase HPLC, mass spectrometry) [8]: Trp-Ala-↓-Gly-Gly-Asp-Ala-Ser-Gly-Glu | endopeptidase activity (azocazein): did not show any endopeptidase activity | endopeptidase activity (gelatin): did not show any endopeptidase activity | Peptides cleaved (hydrolysis products separated by reverse-phase HPLC, mass spectrometry) [9]: Lys-Ile-↓-Ala-Gly-Tyr-His-Leu-Glu-Leu | Peptides not cleaved (reverse-phase HPLC, mass spectrometry) [10]: Peptides not cleaved

AG [Ala-Gly]
% of residual activity of DPP-7 against H-Ala-Phe-pNA after preincubation with 100 mM compound [11]: 96%

GA [Gly-Ala]
% of residual activity of DPP-7 against H-Ala-Phe-pNA after preincubation with 100 mM compound [11]: 102%

RF [Arg-Phe]
% of residual activity of DPP-7 against H-Ala-Phe-pNA after preincubation with 100 mM compound [11]: 69%
